The values that follow come from patent US20190202925A1 (OPI VI IP HOLDCO, published 2019).

A word on the IC50: it is the midpoint of a concentration-inhibition curve. What is called Kd is the concentration at which binding is half-saturated. Higher therefore signals a looser complex.

Experiment [1] has as its target T1, soluble human TNFR2 (human, UniProt P20333 23-257).
T1 construct: also called soluble TNFR2
T1 sequence (looked up): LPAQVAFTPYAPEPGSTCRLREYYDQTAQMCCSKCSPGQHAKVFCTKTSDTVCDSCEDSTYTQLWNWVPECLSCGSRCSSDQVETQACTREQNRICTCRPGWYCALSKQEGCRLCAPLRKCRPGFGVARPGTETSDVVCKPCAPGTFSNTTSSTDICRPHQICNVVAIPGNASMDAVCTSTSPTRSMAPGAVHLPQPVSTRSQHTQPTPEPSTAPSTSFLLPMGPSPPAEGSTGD
Nature of the experiment: competition ELISA: plate-bound soluble human TNFR2, competitor biotinylated TNFα; IC50 relative to unlabelled TNFα = 1.00. The method, then:
(§1) Soluble human TNFR2 (Sino Biological, 10417-H08H) or cynomolgus TNFR2 (Sino Biological, 90102-C08H) was coated on Nunc-Immuno™ plates at 0.1 μg/ml, 0.5 ug/ml, 1 μg/ml, and 5 μg/ml. […] Plates were developed using TMB and stopped with 3 M HCl.
(§2) IC₅₀ values are reported in nM.
A general note: An ELISA detects its analyte on a solid surface through an enzyme-linked reagent.

In experiment [2] the target is T1, soluble human TNFR2. As to the kind of experiment: competition ELISA (FIG. 1), plate-bound soluble human TNFR2, constant biotinylated TNFα as competitor. The source says:
(§3) Soluble human TNFR2 was coated on Nunc-Immuno™ plates. […] IC₅₀ values are reported in nM.

Experiment [3] has as its target T1, soluble human TNFR2. Nature of the experiment: competition ELISA: plate-bound soluble human TNFR2, competitor biotinylated TNFα, streptavidin-HRP, A450. As for the experimental part:
as §1

Experiment [4] concerns the target T1, soluble human TNFR2. As to the kind of experiment: competition ELISA (FIG. 2), plate-bound soluble human TNFR2, constant biotinylated TNFα as competitor.
From the text: as §3

Experiment [5] deals with T1, soluble human TNFR2. As to the kind of experiment: competition ELISA: plate-bound soluble human TNFR2, competitor biotinylated TNFα, streptavidin-HRP, A450. The method, then: as §1
The source holds these as a separate data set.

Experiment [6] has as its target T1, soluble human TNFR2. As to the kind of experiment: competition ELISA: plate-bound soluble human TNFR2, competitor biotinylated TNFα; IC50 relative to unlabelled TNFα = 1.00. The method, then: as §1
The source holds these as a separate data set.

Experiment [7] concerns the target T2, soluble cynomolgus TNFR2 (cynomolgus, UniProt A0A2K5VET2 132-366).
T2 sequence: T1 sequence (looked up) with S16G, S36P, P117Q, N164H, E210A, S216G, M223V
Nature of the experiment: competition ELISA: plate-bound soluble cynomolgus TNFR2, competitor biotinylated TNFα; IC50 relative to unlabelled TNFα = 1.00. The method, then:
as §1, §2

The target of experiment [8] is T2, soluble cynomolgus TNFR2. As to the kind of experiment: competition ELISA: plate-bound soluble cynomolgus TNFR2, competitor biotinylated TNFα, streptavidin-HRP, A450. As for the experimental part: as §1
Experiment [9] deals with T3, monomeric cynomolgus TNFR2 extracellular domain (cynomolgus monkey, UniProt A0A2K5VET2 132-366).
T3 construct: extracellular domain; Analyte in the Octet experiments; also called cynomolgus TNFR2 ECD; Cyno TNFR2
T3 sequence: T1 sequence (looked up) with S16G, S36P, P117Q, N164H, E210A, S216G, M223V
As to the kind of experiment: BLI (Octet Red 96), antibody captured on Fc biosensor, monomeric TNFR2 ECD in solution, 1:1 model. As for the experimental part:
(§4) Analysis of binding to the human and cynomolgus TNFR2 ECD was performed using an Octet Red 96 Instrument™ (ForteBio). […] The experiments were performed using five steps: (1) baseline acquisition (60 s); (2) antibody loading on to anti-human or anti-mouse Fc biosensors (120 s); (3) second baseline acquisition (60 s); (4) association of interacting monomeric human or cynomolgus TNFR2 ECD protein for kₒₙ measurement (120 s); and (5) dissociation of interacting monomeric human or cynomolgus TNFR2 ECD for koff measurement (240-3600 s).
(§5) The interacting monomeric human or cynomolgus ECD was used at 5-6 concentrations of a 3-fold concentration series. The data were analyzed using Octet Data Analysis Software 9.0™ (ForteBio) and fit to the 1:1 binding model. The equilibrium dissociation constants (Kd) were calculated by the ratio of […].
For orientation: In BLI a coated tip is dipped into the sample, and binding shifts an interference pattern.

Experiment [10] deals with T4, monomeric human TNFR2 extracellular domain (human, UniProt P20333 23-257).
T4 construct: extracellular domain; Analyte in the Octet experiments; also called human TNFR2 ECD
T4 sequence (looked up): T1 sequence (looked up)
The experiment is described as above. The method, then: as §4, §5

In experiment [11] the target is T2, soluble cynomolgus TNFR2. As to the kind of experiment: competition ELISA: plate-bound soluble cynomolgus TNFR2, competitor biotinylated TNFα, streptavidin-HRP, A450. The method, then:
as §1
The source holds these as a separate data set.

Experiment [12] deals with T2, soluble cynomolgus TNFR2. Nature of the experiment: competition ELISA, plate-bound soluble cynomolgus TNFR2, biotinylated TNFα as competitor. As for the experimental part:
as §1, §2

For experiment [13], the target named is T2, soluble cynomolgus TNFR2. Nature of the experiment: competition ELISA: plate-bound soluble cynomolgus TNFR2, competitor biotinylated TNFα; IC50 relative to unlabelled TNFα = 1.00. The method, then: as §1
This is another data set of the same source.

For experiment [14], the target named is T4, monomeric human TNFR2 extracellular …. As to the kind of experiment: BLI (Octet Red 96), Human TNFR2 Kd (1-1).
For experiment [15], the target named is T1, soluble human TNFR2. Nature of the experiment: competition ELISA, plate-bound soluble human TNFR2, biotinylated TNFα as competitor. As for the experimental part: as §1, §2
The target of experiment [16] is T1, soluble human TNFR2. As to the kind of experiment: competition ELISA (FIG. 2), plate-bound soluble human TNFR2, constant biotinylated TNFα as competitor; unit from paragraph 202 (IC50 values are reported in nM).
From the text: as §3

Substitutions are numbered along the chain they refer to. Where two headings read alike, the source gives them in different places.

B1: SBT-002 (antibody, V domains shown)
VH: QVTLKESGPGILQPSQTLSLTCSFSGFSLSTSGMGVGWIRQPSGKGLEWLAHIWWDDDKFYNPSLKSQLTISKDTSRNQVFLKLTSVVTADTATYYCARLTGTRYFDYWGQGTTLTVSS
VL: DVQMTQSPSSLSASLGGKVTITCKASQDINKFIAWYQHKPGKGPRLLIHYTSTLQPGIPSKFSGSGSGRDYSFSISNLEPEDIATYYCLQYGNLWTFGGGTKLEIT
notes: Parental mouse antibody; also called mouse SBT-002
For B1, the “Relative IC50” value was 2.17 nM with soluble human TNFR2 [1], 2.33 nM with soluble human TNFR2 [6], 2.04 nM in the experiment with soluble cynomolgus TNFR2 [7] and 2.13 nM with soluble cynomolgus TNFR2 [13]. In addition, the 50% inhibitory concentration (IC50) with soluble human TNFR2 [2] stood at 5.12 nM; with soluble human TNFR2 [3] it was 5.77 nM; with soluble human TNFR2 [4] it was 5.08 nM; in the experiment with soluble human TNFR2 [5] it was 12.1 nM; with soluble cynomolgus TNFR2 [8] it was 19.6 nM; in the experiment with soluble cynomolgus TNFR2 [11], 8 nM. The Kd in experiment [9] came out at 0.44 nM; in experiment [10] it was 1.3 nM; in experiment [14] it was 1.3 nM. In addition, the “Average Relative IC50” value was 1.98 with soluble cynomolgus TNFR2 [12] and 2.19 nM with soluble human TNFR2 [15].

B2: SBT-004 (antibody, V domains shown)
VH: EVQLQQSGPEVGRPGSSVKISCKASGYTFTDYIMHWVKQSPGQGLEWIGWVDPEYGSTDYAEKFKKKATLTADTSSNTAYIQLSSLTSEDTATYFCARDDGSYSPFDYWGQGVMVTVSS
VL: DIQMTQSPPSLSASLGDKVTITCQASQNINKYIAWYQQKPGKAPRLLIRYTSTLESGTPSRFSGSGSGRDYSFSISNVESEDIASYYCLQYVNLLTFGAGTKLEIK
notes: Parental rat antibody; also called rat SBT-004
In the case of B2, the IC50 in the experiment with soluble human TNFR2 [2] amounted to 7.88 nM; with soluble human TNFR2 [16], 6.59 nM. For the same molecule, the dissociation constant Kd was 1.8 nM in [10] and 1.1 nM in experiment [14].
